“Also recorded” adds a separate entry of the source.
How the values were obtained:
[1] = tested on: MALME3M xenograft tumor (melanoma cancer line); assay: Xenograft efficacy study with Ab #6: MALME3M; assay type: in vivo, nu/nu mice
From the text: (§1) In this example, four xenograft tumor models were used to identify tumor cell lines that responded to treatment with the anti-ErbB3 antibody Ab #6. The four xenograft tumor models studied represent different indications: MALME3M (melanoma cancer line; ATCC No. HTB-64), ADRr (ovarian cancer cell line; NCI-60, cosmic sample ID No. 905987), ACHN (renal cancer cell line; ATCC No. CRL-1611) and DU145 (prostate cancer cell line; ATCC No. HTB-81).
(§2) In the xenograft tumor models, mice (nu/nu mice: 3-4 week old female mice, T-cell deficient; outbred; Albino background; from Charles River Labs, Wilmington, Mass.) are implanted in the right flank with […] cells/mouse (depending on cell line) in 200 μl via subcutaneous injection. Mice are monitored for initial tumor growth. Tumor cells are allowed to grow for several days until the tumor volume is approximately 200 mm^3. The tumor volume is calculated as V=(π/6 (L×W^2). The mice are treated with the Ab #6 antibody at a dosage of 600 μg/injection every 3 days (qd3). Control mice are treated with phosphate buffered saline (PBS).
(§3) Tumor volume is measured for 60-80 days.
(§4) As a measure of responsiveness of the tumor to Ab #6, the exponential growth rate is determined, which described the experimental data best. The following formula is used to describe the exponential growth. […]

[2] = biological target: T1, ErbB3 (UniProt P21860 20-643, limits assumed); assay: Kinexa
T1 construct: Elsewhere it speaks of the ectodomain of human ErbB3; also called E3; HER3

[3] = tested on: SKOV3 xenograft tumor; assay: Xenograft study with Ab #6 (predicted set): SKOV3; assay type: in vivo, mice
Procedure: as §2
(§5) To test these model predictions, three additional in vivo xenograft studies were performed. The IGROV1, OVCAR8 and SKOV3 cell lines were used in xenograft studies conducted as described in Example 1, wherein mice were treated with 600 μg of Ab #6 every 3 days or with PBS as a control. The xenograft responses, as determined by changes in tumor volume (in mm^3) over time, are summarized in the graphs of FIGS. 9A-9C. Again, the Growth Rate Reduction (GRR) value for each cell line was calculated using the following formula:
(§6) Growth Rate Reduction=1−(Ab #6 Growth Rate)/(PBS Growth Rate)

[4] = tested on: OVCAR8 xenograft tumor; assay: Xenograft study with Ab #6 (predicted set): OVCAR8; assay type: in vivo, mice
Procedure: as §2, §5, §6

[5] = tested on: MDA-MB-231 xenografts; assay: Nude mouse xenograft test of MM-121: MDA-MB-231; assay type: in vivo
From the text: (§7) FIG. 11 is a graph depicting the ability of an anti-ErbB3 antibody (Ab #6, MM-121) to inhibit proliferation of ACHN cells and cells of other cell lines. The center line of the three parallel diagonal lines represents the line computed to maximally separate MM-121 responders from non-responders. Predicted responder MDA-MB-231 was subsequently tested as nude mouse xenografts and was confirmed as a responder (i.e., growth of MDA-MB-231 as nude mouse xenografts was inhibited by MM-121 treatment). Other predicted responders would not grow adequately as xenografts and so could not be tested. Predicted non-responders ZR75-1 and HOP92 were subsequently tested as nude mouse xenografts and were confirmed as non-responders (i.e., growth of each as nude mouse xenografts was not inhibited by MM-121 treatment). Other predicted non-responders have not yet been tested experimentally.

[6] = tested on: BT474 xenograft tumor; assay: Xenograft study with Ab #6 (MM-121): BT474; assay type: in vivo, mice
From the text: In this example, the data obtained for the four cell lines examined in the xenograft studies described in Example 1 (ADRr, ACHN, DU154 and MALME3M) and four cell lines including the three examined in the xenograft studies described in Example 7 (IGROV 1, OVCAR8 and SKOV3), as well as a fourth, BT474, also examined in xenograft studies as described in Example 7, were further examined to determine whether direct biomarkers for Ab #6 (MM-121) responsiveness could be identified.
Next, it was examined whether the concentration of heregulin (HRG) in combination with one receptor concentration (e.g., ErbB1, ErbB3) effectively classified the xenograft data into responders and non-responders. As illustrated in the graph of FIG. 11 (in which the log of the concentration of HRG is plotted against the log of the concentration of ErbB1), these two concentration measurements, HRG and one of the ErbB receptors, were able to accurately classify the xenograft data into responders and non-responders. More specifically, the data for four non-responders BT474, MALME3, ADRr and IGROV1, were separable from the data for four responders, OVCAR8, SKOV3, ACHN, and DU154, thereby allowing for classification of non-responders versus responders. […] For this example, EGFR is measured by FACS and HRG is measured by RT-PCR. […]

[7] = tested on: ACHN xenograft tumor (renal cancer cell line); assay: Xenograft efficacy study with Ab #6: ACHN; assay type: in vivo, nu/nu mice
From the text: as §1, §2, §3, §4

[8] = tested on: HOP92 xenografts; assay: Nude mouse xenograft test of MM-121: HOP92; assay type: in vivo
From the text: as §7

[9] = tested on: ADRr xenograft tumor (ovarian cancer cell line); assay: Xenograft efficacy study with Ab #6: ADRr; assay type: in vivo, nu/nu mice
From the text: as §1, §2, §3, §4

[10] = tested on: IGROV1 xenograft tumor; assay: Xenograft study with Ab #6 (predicted set): IGROV1; assay type: in vivo, mice
Procedure: as §2, §5, §6

[11] = tested on: ZR75-1 xenografts; assay: Nude mouse xenograft test of MM-121: ZR75-1; assay type: in vivo
From the text: as §7

[12] = biological target: ErbB3 (Homo sapiens, UniProt P21860); assay: Ab #6 rate constants measured by Kinexa (inhibitor parameter values, Table 13); assay type: binding
[13] = tested on: DU145 xenograft tumor (prostate cancer cell line); assay: Xenograft efficacy study with Ab #6: DU145; assay type: in vivo, nu/nu mice
From the text: as §1, §2, §3, §4

[14] = biological target: T1, ErbB3; assay: Kinexa; same on-rate as 1.43e5 M^-1s^-1, converted to model units per well
[15] = Ab #6 600 μg/injection every 3 days vs PBS, negative GRR set to zero
[16] = 600 μg of Ab #6 every 3 days vs PBS
[17] = Ab #6 600 μg/injection every 3 days vs PBS

B1: anti-ErbB3 monoclonal antibody Ab #6 (antibody, V domains shown)
VH: EVQLLESGGGLVQPGGSLRLSCAASGFTFSHYVMAWVRQAPGKGLEWVSSISSSGGWTLYADSVKGRFTISRDNSKNTLYLQMNSLRAEDTAVYYCTRGLKMATIFDYWGQGTLVTVSS
VL: QSALTQPASVSGSPGQSITISCTGTSSDVGSYNVVSWYQQHPGKAPKLIIYEVSQRPSGVSNRFSGSKSGNTASLTISGLQTEDEADYYCCSYAGSSIFVIFGGGTKVTVL
notes: also called MM-121
[1]; [15]
  GRR (Tumor Growth Rate Reduction): 0%
[1]; vs PBS control
  effect of antibody treatment on tumor growth (in words): did not inhibit tumor growth; also recorded: no response
[2]
  koff: 0.00011 s⁻¹
  kon: 143000 M⁻¹ s⁻¹
[3]
  experimentally observed responsiveness to Ab #6 based on GRR value: responders
[3]; [16]
  GRR (Tumor Growth Rate Reduction): 19.6%
[4]
  experimentally observed responsiveness to Ab #6 based on GRR value: responders
[4]; [16]
  GRR (Tumor Growth Rate Reduction): 91.4%
[5]
  growth as nude mouse xenografts under MM-121 treatment: inhibited
[6]
  xenograft responsiveness (responder / non-responder): non-responders
[7]; [17]
  GRR (Tumor Growth Rate Reduction): 28.0%
[7]; vs PBS control
  effect of antibody treatment on tumor growth (in words): inhibited tumor growth; also recorded: mid-range responsiveness
[8]
  growth as nude mouse xenografts under MM-121 treatment: not inhibited
[9]; [15]
  GRR (Tumor Growth Rate Reduction): 0%
[9]; vs PBS control
  effect of antibody treatment on tumor growth (in words): did not inhibit tumor growth; also recorded: no response
[10]
  experimentally observed responsiveness to Ab #6 based on GRR value: non-responder
[10]; [16]
  GRR (Tumor Growth Rate Reduction): 6.3%
[11]
  growth as nude mouse xenografts under MM-121 treatment: not inhibited
[12]
  Ab #6 inhibitor binding to ErbB3 (on-rate before unit conversion): calculated as 1.43e5 M^−1s^−1/(Vmedia * Av/Num_cells).
  kr Ab #6_1: Ab #6 inhibitor dissociation from ErbB3: 0.00011 s⁻¹
[12]; 2 * krmm121_1
  kr Ab #6_2: Ab #6 inhibitor dissociation from a second ErbB3: 0.00022 s⁻¹
[12]; unit conversion from M^−1s^−1 /(Vmedia * Av/Num_cells), Num_cells = 30,000 per well
  kf Ab #6_1: Ab #6 inhibitor binding to ErbB3: 7.15E−11 molecules^−1 sec^−1
[13]; [17]
  GRR (Tumor Growth Rate Reduction): 72.6%
[13]; vs PBS control
  effect of antibody treatment on tumor growth (in words): inhibited tumor growth; also recorded: highest responsiveness
[14]
  kon: 143000 M⁻¹ s⁻¹

— patent US20110027291A1, “METHODS, SYSTEMS AND PRODUCTS FOR PREDICTING RESPONSE OF TUMOR CELLS TO A THERAPEUTIC AGENT AND TREATING A PATIENT ACCORDING TO THE PREDICTED RESPONSE” (MERRIMACK PHARMACEUTICALS, INC., priority 2008, published 2011)
